Measured values taken from patent publication US20050096290, “5'-and 3'-capped aptamers and uses therefor” (published 2005).

B1: Oligonucleotide 1 (5'-5' and 3'-3' inverted dT capped anti-VEGF aptamer) (ssRNA)
RNA: CGGAAUCAGUGAAUGCUUAUACAUCCG
modifications: 2'-F on all C and U; 2'-OMe on all G and on A except A4 and A5 (ribo); 5'-5' inverted dT cap; 3'-3' inverted dT cap

Tests used:
[1] = target: T1, VEGF165 (vascular endothelial growth factor A, 165 isoform) (Homo sapiens, UniProt P15692-4 P15692-4:27-191); experiment: competition; biotinylated competitor binds immobilized VEGF165 and is displaced by test aptamer; printed as SEQ ID NO:1 in text but matches listing SEQ 11; conditions: tags: recombinant human VEGF165, immobilized on 96-well plate; chain copies: 2 inferred; label: two 5' biotin moieties (XX)
T1 sequence (P15692 other isoform, or with tags, fused parts or gaps): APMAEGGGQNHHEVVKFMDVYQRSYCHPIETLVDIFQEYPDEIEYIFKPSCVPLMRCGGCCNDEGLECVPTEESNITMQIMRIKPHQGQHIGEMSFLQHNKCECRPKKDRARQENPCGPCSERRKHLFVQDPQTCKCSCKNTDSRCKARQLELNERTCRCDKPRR
Description: (§1) The ability of anti-VEGF aptamers to bind to human vascular endothelial growth factor (VEGF) was determined using a competitive binding ELISA-like assay. In this assay, recombinant VEGF₁₆₅ is bound to the wells of a 96-well plate (Quadra 96 Plus). Following blocking of nonspecific reactive sites on the plate, a matrix of the test aptamer and a biotinylated competitor, the DNA oligonucleotide shown below, were added.
(§2) “X” represent a biotin moiety in the above representation. Both the biotinylated competitor and the test aptamer compete for binding sites on the immobilized VEGF. Following the removal of the unbound biotinylated competitor and unbound test aptamer, the amount of biotinylated competitor remaining is detected using a chemiluminescence reaction. The entire plate was immediately read on a luminometer (Victor 2). The amount of bound biotinylated competitor is inversely related to the amount of bound test aptamer.

[2] = target: T1, VEGF165 (vascular endothelial growth …); experiment: competition; competitive ELISA-like plate assay against biotinylated DNA competitor on immobilized VEGF165, chemiluminescence readout; conditions: tags: recombinant human VEGF165, immobilized on 96-well plate; chain copies: 2 inferred
Description: as §1, §2

Binder	binding result [1]	IC50 [2] [nM]
CCCGTCTTCCAGACAAGAGTGCAGGG (ssDNA) [biotinylated DNA competitor oligonucleotide]	binds	
B1		3.28
